From publication PMC7550704 (Molecular Biology of the Cell, 2020) come the findings set out here.

In this assay the target is T1, Sgo1^1–150-His6-MBP (X. laevis, UniProt Q4KLP8 1-150).
T1 sequence (looked up): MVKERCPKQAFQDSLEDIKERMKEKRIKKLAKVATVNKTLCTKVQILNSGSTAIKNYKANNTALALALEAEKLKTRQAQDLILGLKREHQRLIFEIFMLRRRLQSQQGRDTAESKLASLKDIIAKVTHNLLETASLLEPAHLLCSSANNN
Kind of assay: supernatant depletion.

B1: GST-Borealin-2^216–296 (domain or fragment)
chain: not shown
Consider B1, for which binding was characterised by a dissociation constant (Kd) of 10 ± 1.6 µM.

What is called Kd is a measure of binding affinity in units of concentration. Low readings indicate tighter binding, high ones weaker binding.
